T1: human EpCAM (human, UniProt P16422 24-314)
T1 sequence (looked up): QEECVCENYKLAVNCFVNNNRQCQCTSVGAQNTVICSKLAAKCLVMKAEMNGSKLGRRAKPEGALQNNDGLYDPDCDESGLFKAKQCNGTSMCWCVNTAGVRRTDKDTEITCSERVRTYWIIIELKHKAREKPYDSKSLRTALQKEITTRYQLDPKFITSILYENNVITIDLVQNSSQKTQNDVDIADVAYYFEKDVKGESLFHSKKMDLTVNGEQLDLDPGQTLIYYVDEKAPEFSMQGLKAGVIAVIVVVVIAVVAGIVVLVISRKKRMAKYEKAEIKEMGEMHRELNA


Molecular target: T1, human EpCAM
Experiment: cell-based or functional assay

Binder | Cytotoxicity Assays of CDCs, A431 cells IC50 (nm) | Cytotoxicity Assays of CDCs, HT-29 cells IC50 (nm)
Iso124R5AB_D6_cys vcMMAF conjugate (designed binder, vc-MMAF on the C-terminal cysteine (cysteine-maleimide chemistry)) MLPAPKNLVVSRVTEDSARLSWHNHRPQFDSFLIQYQESEKVGEAIVLTVPGSERSYDLTGLKPGTEYTVSIYGVAIAVPWNYQSNPLSAIFTTGGHHHHHHGGC | 59.2 | 38.3
ISOP130R5CP6_A06_cys vcMMAF conjugate (designed binder, vc-MMAF on the C-terminal cysteine (cysteine-maleimide chemistry)) MLPAPKNLVVSRVTEDSARLSWKHYRPGARFDSFLIQYQESEKVGEAIVLTVPGSERSYDLTGLKPGTEYTVSIYGVVTALPSYYSSNPLSAIFTTGGHHHHHHGGC | 9.9 | 6.7
ISOP130R5CP7_G04_cys vcMMAF conjugate (designed binder, vc-MMAF on the C-terminal cysteine (cysteine-maleimide chemistry)) MLPAPKNLVVSRVTEDSARLSWKHYRPGARFDSFLIQYQESEKVGEAIVLTVPGSERSYDLTGLKPGTEYTVSIYGVAAHAIPRYASNPLSAIFTTGGHHHHHHGGC | 48.1 | 37.7

Molecular target: T1, human EpCAM
Experiment: cell-based or functional assay
Remark: another data set of the same source

Binder | % viable COLO205 cells, 1 nM [%]
ISOP130R5CP7_G02srt vcMMAF conjugate (designed binder, vcMMAF conjugated via the sortase reaction at the C-terminal sortase tag (Gly3-vcMMAF)) MLPAPKNLVVSRVTEDSARLSWKHYRPGARFDSFLIQYQESEKVGEAIILTVPGSERSYDLTGLKPGTEYTVSIYGVVTHALPTAYTSNPLSAIFTTGGHHHHHHGGLPETGGH | 39
ISOP130R5CP6_A02srt vcMMAF conjugate (designed binder, vcMMAF conjugated via the sortase reaction at the C-terminal sortase tag (Gly3-vcMMAF)) MLPAPKNLVVSRVTEDSARLSWKHYRPGARFDSFLIQYQESEKVGEAIVLTVPGSERSYDLTGLKPGTEYTVSIYGVVNNALPRWYISNPLSAIFTTGGHHHHHHGGLPETGGH | 66
ISOP130R5CP6_F02srt vcMMAF conjugate (designed binder, vcMMAF conjugated via the sortase reaction at the C-terminal sortase tag (Gly3-vcMMAF)) MLPAPKNLVVSRVTEDSARLSWDQYRKYAGFDSFLIQYQESEKVGEAIVLTVPGSERSYDLTGLKPGTEYTVSIYGVVTHALPQTYQSNPLSAIFTTGGHHHHHHGGLPETGGH | 90
ISOP130R5CP7_F11srt vcMMAF conjugate (designed binder, vcMMAF conjugated via the sortase reaction at the C-terminal sortase tag (Gly3-vcMMAF)) MLPAPKNLVVSRVTEDSARLSWKHYRPGARFDSFLIQYQESEKVGEAIVLTVPGSERSYDLTGLKPGTEYTVSIYGVIWGALPNSYSSNPLSAIFTTGGHHHHHHGGLPETGGH | 81
ISOP130R5CP6_F01srt vcMMAF conjugate (designed binder, vcMMAF conjugated via the sortase reaction at the C-terminal sortase tag (Gly3-vcMMAF)) MLPAPKNLVVSRVTEDSARLSWKHYRPGARFDSFLIQYQESEKVGEAIVLTVPGSERSYDLTGLKPGTEYTVSIYGVVTALPSNYISNPLSAIFTTGGHHHHHHGGLPETGGH | 43
ISOP130R5CP6_E08srt vcMMAF conjugate (designed binder, vcMMAF conjugated via the sortase reaction at the C-terminal sortase tag (Gly3-vcMMAF)) MLPAPKNLVVSRVTEDSARLSWKHYRPGARFDSFLIQYQESEKVGEAIVLTVPGSERSYDLTGLKPGTEYTVSIYGVVAALPNNYASNPLSAIFTTGGHHHHHHGGLPETGGH | 66
ISOP130R5CP6_A06srt vcMMAF conjugate (designed binder, vcMMAF conjugated via the sortase reaction at the C-terminal sortase tag (Gly3-vcMMAF)) MLPAPKNLVVSRVTEDSARLSWKHYRPGARFDSFLIQYQESEKVGEAIVLTVPGSERSYDLTGLKPGTEYTVSIYGVVTALPSYYSSNPLSAIFTTGGHHHHHHGGLPETGGH | 67

Molecular target: T1, human EpCAM
Experiment: cell-based or functional assay
Remark: another data set of the same source

Binder | IC50 (nM), cytotoxicity on COLO205 cells (CellTiterGlo) [nM]
ISOP130R5CP6_A06_Y25A vcMMAF conjugate (designed binder, vcMMAF conjugated via the sortase reaction at the C-terminal sortase tag) MLPAPKNLVVSRVTEDSARLSWKHARPGARFDSFLIQYQESEKVGEAIVLTVPGSERSYDLTGLKPGTEYTVSIYGVVTALPSYYSSNPLSAIFTTGGHHHHHHGGLPETGGH | 127
ISOP130R5CP6_A06_S86A vcMMAF conjugate (designed binder, vcMMAF conjugated via the sortase reaction at the C-terminal sortase tag) MLPAPKNLVVSRVTEDSARLSWKHYRPGARFDSFLIQYQESEKVGEAIVLTVPGSERSYDLTGLKPGTEYTVSIYGVVTALPSYYASNPLSAIFTTGGHHHHHHGGLPETGGH | 1.3
ISOP130R5CP6_A06_S83A vcMMAF conjugate (designed binder, vcMMAF conjugated via the sortase reaction at the C-terminal sortase tag) MLPAPKNLVVSRVTEDSARLSWKHYRPGARFDSFLIQYQESEKVGEAIVLTVPGSERSYDLTGLKPGTEYTVSIYGVVTALPAYYSSNPLSAIFTTGGHHHHHHGGLPETGGH | 1.4
ISOP130R5CP6_A06_Y85A vcMMAF conjugate (designed binder, vcMMAF conjugated via the sortase reaction at the C-terminal sortase tag) MLPAPKNLVVSRVTEDSARLSWKHYRPGARFDSFLIQYQESEKVGEAIVLTVPGSERSYDLTGLKPGTEYTVSIYGVVTALPSYASSNPLSAIFTTGGHHHHHHGGLPETGGH | 564
ISOP130R5CP6_A06_H24A vcMMAF conjugate (designed binder, vcMMAF conjugated via the sortase reaction at the C-terminal sortase tag) MLPAPKNLVVSRVTEDSARLSWKAYRPGARFDSFLIQYQESEKVGEAIVLTVPGSERSYDLTGLKPGTEYTVSIYGVVTALPSYYSSNPLSAIFTTGGHHHHHHGGLPETGGH | 2.6
ISOP130R5CP6_A06_K23A vcMMAF conjugate (designed binder, vcMMAF conjugated via the sortase reaction at the C-terminal sortase tag) MLPAPKNLVVSRVTEDSARLSWAHYRPGARFDSFLIQYQESEKVGEAIVLTVPGSERSYDLTGLKPGTEYTVSIYGVVTALPSYYSSNPLSAIFTTGGHHHHHHGGLPETGGH | 1
ISOP130R5CP6_A06_R30A vcMMAF conjugate (designed binder, vcMMAF conjugated via the sortase reaction at the C-terminal sortase tag) MLPAPKNLVVSRVTEDSARLSWKHYRPGAAFDSFLIQYQESEKVGEAIVLTVPGSERSYDLTGLKPGTEYTVSIYGVVTALPSYYSSNPLSAIFTTGGHHHHHHGGLPETGGH | 0.8
ISOP130R5CP6_A06_V78A vcMMAF conjugate (designed binder, vcMMAF conjugated via the sortase reaction at the C-terminal sortase tag) MLPAPKNLVVSRVTEDSARLSWKHYRPGARFDSFLIQYQESEKVGEAIVLTVPGSERSYDLTGLKPGTEYTVSIYGVATALPSYYSSNPLSAIFTTGGHHHHHHGGLPETGGH | 4.5
ISOP130R5CP6_A06_L81A vcMMAF conjugate (designed binder, vcMMAF conjugated via the sortase reaction at the C-terminal sortase tag) MLPAPKNLVVSRVTEDSARLSWKHYRPGARFDSFLIQYQESEKVGEAIVLTVPGSERSYDLTGLKPGTEYTVSIYGVVTAAPSYYSSNPLSAIFTTGGHHHHHHGGLPETGGH | 76
ISOP130R5CP6_A06_T79A vcMMAF conjugate (designed binder, vcMMAF conjugated via the sortase reaction at the C-terminal sortase tag) MLPAPKNLVVSRVTEDSARLSWKHYRPGARFDSFLIQYQESEKVGEAIVLTVPGSERSYDLTGLKPGTEYTVSIYGVVAALPSYYSSNPLSAIFTTGGHHHHHHGGLPETGGH | 0.5
ISOP130R5CP6_A06_R26A vcMMAF conjugate (designed binder, vcMMAF conjugated via the sortase reaction at the C-terminal sortase tag) MLPAPKNLVVSRVTEDSARLSWKHYAPGARFDSFLIQYQESEKVGEAIVLTVPGSERSYDLTGLKPGTEYTVSIYGVVTALPSYYSSNPLSAIFTTGGHHHHHHGGLPETGGH | 507
ISOP130R5CP6_A06_P82A vcMMAF conjugate (designed binder, vcMMAF conjugated via the sortase reaction at the C-terminal sortase tag) MLPAPKNLVVSRVTEDSARLSWKHYRPGARFDSFLIQYQESEKVGEAIVLTVPGSERSYDLTGLKPGTEYTVSIYGVVTALASYYSSNPLSAIFTTGGHHHHHHGGLPETGGH | 326
ISOP130R5CP6_A06_Y84A vcMMAF conjugate (designed binder, vcMMAF conjugated via the sortase reaction at the C-terminal sortase tag) MLPAPKNLVVSRVTEDSARLSWKHYRPGARFDSFLIQYQESEKVGEAIVLTVPGSERSYDLTGLKPGTEYTVSIYGVVTALPSAYSSNPLSAIFTTGGHHHHHHGGLPETGGH | 0.4
ISOP130R5CP6_A06_P27A vcMMAF conjugate (designed binder, vcMMAF conjugated via the sortase reaction at the C-terminal sortase tag) MLPAPKNLVVSRVTEDSARLSWKHYRAGARFDSFLIQYQESEKVGEAIVLTVPGSERSYDLTGLKPGTEYTVSIYGVVTALPSYYSSNPLSAIFTTGGHHHHHHGGLPETGGH | 42.6
ISOP130R5CP6_A06_G28A vcMMAF conjugate (designed binder, vcMMAF conjugated via the sortase reaction at the C-terminal sortase tag) MLPAPKNLVVSRVTEDSARLSWKHYRPAARFDSFLIQYQESEKVGEAIVLTVPGSERSYDLTGLKPGTEYTVSIYGVVTALPSYYSSNPLSAIFTTGGHHHHHHGGLPETGGH | 0.8
ISOP130R5CP6_A06srt vcMMAF conjugate (designed binder, vcMMAF conjugated via the sortase reaction at the C-terminal sortase tag (Gly3-vcMMAF)) MLPAPKNLVVSRVTEDSARLSWKHYRPGARFDSFLIQYQESEKVGEAIVLTVPGSERSYDLTGLKPGTEYTVSIYGVVTALPSYYSSNPLSAIFTTGGHHHHHHGGLPETGGH | 1.6

Molecular target: prostate specific membrane antigen (PSMA) (UniProt Q04609 1-750, limits assumed)
Experiment: cell-based or functional assay

Sequence of prostate specific membrane antigen (PSMA) (Q04609 whole entry): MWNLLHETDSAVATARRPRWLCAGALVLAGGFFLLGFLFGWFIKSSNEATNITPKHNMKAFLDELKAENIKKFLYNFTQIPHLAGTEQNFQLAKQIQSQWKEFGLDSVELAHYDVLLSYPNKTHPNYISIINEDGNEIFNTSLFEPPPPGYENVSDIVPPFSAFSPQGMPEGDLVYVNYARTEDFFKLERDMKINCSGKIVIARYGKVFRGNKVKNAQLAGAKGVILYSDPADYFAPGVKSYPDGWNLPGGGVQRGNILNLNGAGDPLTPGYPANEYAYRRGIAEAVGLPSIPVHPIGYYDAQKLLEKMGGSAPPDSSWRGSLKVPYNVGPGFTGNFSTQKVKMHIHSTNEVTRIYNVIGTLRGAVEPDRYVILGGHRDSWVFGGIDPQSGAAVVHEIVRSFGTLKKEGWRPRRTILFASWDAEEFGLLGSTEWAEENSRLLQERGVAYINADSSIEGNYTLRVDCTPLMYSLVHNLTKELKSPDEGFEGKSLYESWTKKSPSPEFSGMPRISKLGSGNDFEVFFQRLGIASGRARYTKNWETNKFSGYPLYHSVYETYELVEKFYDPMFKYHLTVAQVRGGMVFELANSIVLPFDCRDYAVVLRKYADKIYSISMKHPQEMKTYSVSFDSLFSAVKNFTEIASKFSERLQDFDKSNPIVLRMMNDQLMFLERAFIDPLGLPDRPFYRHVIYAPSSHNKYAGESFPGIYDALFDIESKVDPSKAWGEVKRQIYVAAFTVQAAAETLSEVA

Binder | LNCaP cells IC50 (nM), cytotoxicity (CellTiterGlo) [nM] | MDA-PCA-2B cells IC50 (nM), cytotoxicity (CellTiterGlo) [nM] | VCAP cells IC50 (nM), cytotoxicity (CellTiterGlo) [nM]
P229CR5P819_H11 vcMMAF conjugate (designed binder, vc-MMAF conjugated through a sortase tag (Gly3-vc-MMAF, sortase A)) LPAPKNLVVSRVTEDSARLSWDIDEQRDWFDSFLIQYQESEKVGEAIVLTVPGSERSYDLTGLKPGTEYTVSIYGVYHVYRSSNPLSAIFTT | 9.3 | 107 | 231
P233FR9P1001-H3-1 vcMMAF conjugate (designed binder, vc-MMAF conjugated through a sortase tag (Gly3-vc-MMAF, sortase A)) LPAPKNLVVSRVTEDSARLSWTAPDAAFDSFPIGYWEWDDDGEAIVLTVPGSERSYDLTGLKPGTEYHVYIAGVKGGQWSFPLSAIFTT | 0.4 | 4.6 | 15.2
P233FR9_H10 vcMMAF conjugate (designed binder, vc-MMAF conjugated through a sortase tag (Gly3-vc-MMAF, sortase A)) LPAPKNLVVSRVTEDSARLSWTAPDAAFDSFAIGYWEWDDDGEAIVLTVPGSERSYDLTGLKPGTEYPVYIAGVKGGQWSFPLSAIFTT | 0.5 | 5.8 | 25.9
P234CR9_H01 vcMMAF conjugate (designed binder, vc-MMAF conjugated through a sortase tag (Gly3-vc-MMAF, sortase A)) LPAPKNLVVSRVTEDSARLSWEWWVIPGDFDSFLIQYQESEKVGEAIVLTVPGSERSYDLTGLKPGTEYTVSIYGVVNSGQWNDTSNPLSAIFTT | 22.6 | 151 | 401
